Here are results for one molecule from patent US20120172315A1 (CENTRE NATIONAL DE LA RECHERCHE SCIENTIFIQUE, published 2012).

In this test the target is eIF4E in B lymphocytes from patients suffering from CLL (human (patients' cells);  for …, UniProt P06730 2-217, limits assumed). In words: cell-based or functional assay.
Sequence of eIF4E in B lymphocytes from patients suffering from CLL (P06730 2-217 limits assumed): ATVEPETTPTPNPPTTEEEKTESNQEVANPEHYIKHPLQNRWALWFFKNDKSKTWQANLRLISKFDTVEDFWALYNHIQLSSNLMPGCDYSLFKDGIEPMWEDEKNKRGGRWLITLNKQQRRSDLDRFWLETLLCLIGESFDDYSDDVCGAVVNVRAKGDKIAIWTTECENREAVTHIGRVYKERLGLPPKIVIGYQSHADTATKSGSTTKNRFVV

With RRKYGRDFLLRFRYIRS [A1 WT IRS peptide], the “IC50, defined as the concentration of peptide capable of causing the death of 50% of the cells after 24 H (CLL cells)” value was ~28 µM and the “IC50, defined as the concentration of peptide capable of causing the death of 50% of the cells after 24 H (CLL cells, second patient)” value came to 24 µM.
